From patent US20090022738A1 (MICROMET, published 2009)
Where a chain is given by its changes, count along the chain named.

B1: anti-CD19×anti-CD3 (VH5/VL1) (SEQ ID NO.:190) (bispecific antibody)
chain: DIQLTQSPASLAVSLGQRATISCKASQSVDYDGDSYLNWYQQIPGQPPKLLIYDASNLVSGIPPRFSGSGSGTDFTLNIHPVEKVDAATYHCQQSTEDPWTFGGGTKLEIKGGGGSGGGGSGGGGSQVQLQQSGAELVRPGSSVKISCKASGYAFSSYWMNWVKQRPGQGLEWIGQIWPGDGDTNYNGKFKGKATLTADESSSTAYMQLSSLASEDSAVYFCARRETTTVGRYYYAMDYWGQGTTVTVSSGGGGSDVQLVQSGAEVKKPGASVKVSCKASGYTFTRYTMHWVRQAPGQGLEWIGYINPSRGYTNYADSVKGRFTITTDKSTSTAYMELSSLRSEDTATYYCARYYDDHYCLDYWGQGTTVTVSSGEGTSTGSGGSGGSGGADDIQMTQSPSSLSASVGDRVTITCRASQSVSYMNWYQQKPGKAPKRWIYDTSKVASGVPARFSGSGSGTDYSLTINSLEAEDAATYYCQQWSSNPLTFGGGTKVEIK
notes: As m4: bispecific single chain, His-tagged; also called pEF anti-CD19×anti-CD3 (VH5/VL1)
B2: anti-CD19×anti-CD3 (VH7/VL1) (SEQ ID NO.:196) (bispecific antibody)
chain: B1 chain with A316N, D317Q, S318K, V319F, G321D, F323V, T348V
notes: As m4: bispecific single chain, His-tagged; also called pEF anti-CD19×anti-CD3 (VH7/VL1)
B3: anti-CD19×anti-CD3 (VH7/VL2) (SEQ ID NO.:198) (bispecific antibody)
chain: DIQLTQSPASLAVSLGQRATISCKASQSVDYDGDSYLNWYQQIPGQPPKLLIYDASNLVSGIPPRFSGSGSGTDFTLNIHPVEKVDAATYHCQQSTEDPWTFGGGTKLEIKGGGGSGGGGSGGGGSQVQLQQSGAELVRPGSSVKISCKASGYAFSSYWMNWVKQRPGQGLEWIGQIWPGDGDTNYNGKFKGKATLTADESSSTAYMQLSSLASEDSAVYFCARRETTTVGRYYYAMDYWGQGTTVTVSSGGGGSDVQLVQSGAEVKKPGASVKVSCKASGYTFTRYTMHWVRQAPGQGLEWIGYINPSRGYTNYNQKFKDRVTITTDKSTSTAYMELSSLRSEDTAVYYCARYYDDHYCLDYWGQGTTVTVSSGEGTSTGSGGSGGSGGADDIVLTQSPATLSLSPGERATLSCRASQSVSYMNWYQQKPGKAPKRWIYDTSKVASGVPARFSGSGSGTDYSLTINSLEAEDAATYYCQQWSSNPLTFGGGTKVEIK
notes: As m4: bispecific single chain, His-tagged; all other places say VH7/VL2
B4: deimmunized anti-CD3 (VH5/VL2)×4-7 (VL-VH) (SEQ ID NO.:35) (bispecific antibody)
chain: DVQLVQSGAEVKKPGASVKVSCKASGYTFTRYTMHWVRQAPGQGLEWIGYINPSRGYTNYADSVKGRFTITTDKSTSTAYMELSSLRSEDTATYYCARYYDDHYCLDYWGQGTTVTVSSGEGTSTGSGGSGGSGGADDIVLTQSPATLSLSPGERATLSCRASQSVSYMNWYQQKPGKAPKRWIYDTSKVASGVPARFSGSGSGTDYSLTINSLEAEDAATYYCQQWSSNPLTFGGGTKVEIKSGGGGSELVMTQTPLSLPVSLGDQASISCRSSQSLVHSNGNTYLHWYLQKPGQSPKLLIYKVSNRFSGVPDRFSGSGSGTDFTLKISRVEAEDLGVYFCSQSTHVPYTFGGGTKLEIKGGGGSGGGGSGGGGSEVQLLEQSGAELARPGASVKLSCKASGYTFTNYGLSWVKQRPGQVLEWIGEVYPRIGNAYYNEKFKGKATLTADKSSSTASMELRSLTSEDSAVYFCARRGSYDTNYDWYFDVWGQGTTVTVSS
notes: Bispecific single chain, VH(CD3)-VL(CD3)-VL(EpCAM)-VH(EpCAM); detected by anti-His; also called anti-CD3 (VH5/VL2)x4-7 (VL-VH)

Target: T1, human CD3 (human, UniProt P07766 23-207; P04234 22-171; P09693 23-182)
T1 construct: whole, on cells; also called CD3 antigen; human CD3 complex
Assay: FACS, purified construct at 0.5 µg/ml as printed, on CD3 positive cells

**Q.** For B1, which MFI is on record?
**A.** ≥ 40 MFI

**Q.** B2 was tested. Which MFI did it give?
**A.** ≥ 40 MFI

**Q.** Which MFI does the source give for B3 here?
**A.** 25 MFI

Target: T2, Epithelial cell adhesion molecule (EpCAM) (human, UniProt P16422 24-314)
T2 construct: whole, on cells; also called 17-1A antigen; KSA
T2 sequence (looked up): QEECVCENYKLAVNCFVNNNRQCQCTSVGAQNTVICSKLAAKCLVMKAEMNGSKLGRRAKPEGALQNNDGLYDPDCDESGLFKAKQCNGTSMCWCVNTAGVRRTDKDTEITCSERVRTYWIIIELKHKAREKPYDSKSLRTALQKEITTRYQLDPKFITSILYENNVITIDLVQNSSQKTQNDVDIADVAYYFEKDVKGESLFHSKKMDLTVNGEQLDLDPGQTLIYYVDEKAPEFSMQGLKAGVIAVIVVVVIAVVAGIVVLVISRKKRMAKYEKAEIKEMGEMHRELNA
Assay: FACS, 10 µg/ml on EpCAM positive Kato III cells
Procedure: (§1) Binding of the bispecific single chain molecules with anti-CD3 part in N-terminal orientation to EpCAM and CD3 were confirmed by FACS analyses. For that purpose the EpCAM positive human gastric cancer cell line Kato III (ATCC HTB-103) was used.
(§2) Cells were cultured according to the recommendations of the supplier and a number of 200000 cells was incubated with 10 μg/ml of the construct in 50 μl PBS with 2% FCS (fetal calf serum). The binding of the construct was detected with an anti-His antibody (Penta-His Antibody, obtained from Qiagen, Hilden, FRG) at 2 μg/ml in PBS with 2% FCS. […] The samples were measured on a FACSscan (BD biosciences, Heidelberg, FRG).

**Q.** Does B4 bind?
**A.** binds

Target: T1, human CD3
Assay: FACS, non-diluted crude supernatant on CD3-enriched PBMCs; anti-His + FITC anti-mouse
Procedure: (§3) In order to analyze the binding efficacy of the deimmunized constructs to CD3 and CD19 a FACS-based assay was performed. Initially, crude supernatants were tested for binding on CD3-enriched PBMCs or CD19-positive NALM-6 cells. Cells were incubated with non-diluted supernatants for 30 minutes at 8° C. Upon two wash steps the cells were labeled with an anti-His antibody (Qiagen) under the same conditions. After additional wash steps binding of the constructs was detected with a FITC-conjugated sheep anti-mouse antibody (Sigma). Cells were analyzed with a FACS Calibur cytometer (B&D). As controls supernatants of anti-CD19×anti-CD3 and GFP-transfected cells were included. […] The positive control, which was a non-deimmunized anti-CD19×anti-CD3 construct reached a MFI of around 60 showing that the deimmunized constructs comprising anti-CD3 (VH5/VL1) (SEQ ID NO.:190), anti-CD3 (VH5/VL2) (SEQ ID NO.:192), anti-CD3 (VH5/VL3) (SEQ ID NO.:194), anti-CD3 (VH7/VL1) (SEQ ID NO.:196), anti-CD3 (VH7/VL2) (SEQ ID NO.:198) and anti-CD3 (VH7/VL3) (SEQ ID NO.:200) bound CD3 with extremely high efficacy.

**Q.** Which MFI does the source give for B1 here?
**A.** ≥ 90 MFI

**Q.** And the “fold over the negative control (secondary antibody only, MFI ca. 3.5)” value?
**A.** ~25 fold

**Q.** How did the MFI turn out when B2 was run?
**A.** ≥ 90 MFI

**Q.** And the “fold over the negative control (secondary antibody only, MFI ca. 3.5)” value?
**A.** ~25 fold

**Q.** What does the source list for B3?
**A.** MFI: ≥ 90 MFI; fold over the negative control (secondary antibody only, MFI ca. 3.5): ~25 fold

Target: T3, CD19 (human, UniProt P15391 20-556)
T3 construct: whole, on cells; also called CD19 on NALM-6 cells
T3 sequence (looked up): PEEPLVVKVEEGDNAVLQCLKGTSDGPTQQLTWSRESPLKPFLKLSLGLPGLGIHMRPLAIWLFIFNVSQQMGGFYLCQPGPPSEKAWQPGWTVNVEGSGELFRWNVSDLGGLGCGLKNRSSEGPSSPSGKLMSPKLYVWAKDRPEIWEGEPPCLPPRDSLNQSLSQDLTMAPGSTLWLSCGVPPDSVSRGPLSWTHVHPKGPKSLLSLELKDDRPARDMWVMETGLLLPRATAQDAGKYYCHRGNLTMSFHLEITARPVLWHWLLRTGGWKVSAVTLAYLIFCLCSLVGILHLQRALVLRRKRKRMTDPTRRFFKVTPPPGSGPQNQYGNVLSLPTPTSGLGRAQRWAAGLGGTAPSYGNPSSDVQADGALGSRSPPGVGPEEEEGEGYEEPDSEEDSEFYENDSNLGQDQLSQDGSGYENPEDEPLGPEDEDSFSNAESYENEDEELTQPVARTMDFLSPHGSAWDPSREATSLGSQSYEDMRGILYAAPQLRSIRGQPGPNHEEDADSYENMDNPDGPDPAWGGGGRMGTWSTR
Assay: FACS, crude supernatant on CD19-positive NALM-6 cells; negative control MFI ca. 3
Procedure: as §3
The FACS-based binding assay was also carried out for CD19. In this experiment CD19 and a secondary antibody was as a negative control. In this experiment, all assayed constructs achieved a MFI of at least 80 while the MFI of the negative control was ca. 3.

**Q.** Which MFI does the source give for B1 here?
**A.** ≥ 80 MFI

**Q.** For B2, which MFI is on record?
**A.** ≥ 80 MFI

**Q.** How did the MFI turn out when B3 was run?
**A.** ≥ 80 MFI

Target: T1, human CD3
Assay: FACS, 10 µg/ml on Jurkat cells
Procedure: as §1, §2

**Q.** Does B4 bind?
**A.** binds

Target: T3, CD19
Assay: FACS, purified constructs at 1 and 5 µg/ml on CD19-positive NALM cells
Procedure: Binding was measured by a FACS-based assay using CD3 enriched PBMCs (A) or CD19-positive NALM-cells (B). A secondary antibody with CD3 positive cells was used as a negative control in (A) and a secondary antibody with CD19 positive cells was used as a negative control in (B). Constructs anti-CD19×anti-CD3 and anti-EpCAM (M79)×anti-CD3 were used as controls. Assay was carried out with concentrations of 1 μg/ml and 5 μg/ml. MFI indicates mean fluorescence intensity.
as §3

**Q.** With B1 as the binder, how does the MFI read?
**A.** ~200 MFI

**Q.** B2 was tested. Which MFI did it give?
**A.** ~200 MFI

**Q.** Which MFI does the source give for B3 here?
**A.** ~200 MFI
